Among the data in patent US20020192704A1 are binding activity (RU; IRR-Fc binding value minus IR-Fc binding value) values, retold here.

For this assay, the target named is IRR-Fc fusion protein (extracellular region of mouse insulin receptor-related receptor, 1-920th residues, fused to the H-chain C (constant) region (Fc region) of human IgG1) (mouse; human) (UniProt Q9WTL4). Kind of assay: SPR (BIACORE 2000), IRR-Fc immobilised on a CM5 chip, IR-Fc flow cell subtracted; about 10 ug of specimen in 200 ul of buffer. Background: SPR reads the build-up and loss of mass on a sensor chip optically.
IRR-Fc fusion protein (extracellular region of mouse insulin receptor-related receptor, 1-920th residues, fused to the H-chain C (constant) region (Fc region) of human IgG1) (mouse; human), sequence (Q9WTL4 27-920 limits assumed, form in doubt): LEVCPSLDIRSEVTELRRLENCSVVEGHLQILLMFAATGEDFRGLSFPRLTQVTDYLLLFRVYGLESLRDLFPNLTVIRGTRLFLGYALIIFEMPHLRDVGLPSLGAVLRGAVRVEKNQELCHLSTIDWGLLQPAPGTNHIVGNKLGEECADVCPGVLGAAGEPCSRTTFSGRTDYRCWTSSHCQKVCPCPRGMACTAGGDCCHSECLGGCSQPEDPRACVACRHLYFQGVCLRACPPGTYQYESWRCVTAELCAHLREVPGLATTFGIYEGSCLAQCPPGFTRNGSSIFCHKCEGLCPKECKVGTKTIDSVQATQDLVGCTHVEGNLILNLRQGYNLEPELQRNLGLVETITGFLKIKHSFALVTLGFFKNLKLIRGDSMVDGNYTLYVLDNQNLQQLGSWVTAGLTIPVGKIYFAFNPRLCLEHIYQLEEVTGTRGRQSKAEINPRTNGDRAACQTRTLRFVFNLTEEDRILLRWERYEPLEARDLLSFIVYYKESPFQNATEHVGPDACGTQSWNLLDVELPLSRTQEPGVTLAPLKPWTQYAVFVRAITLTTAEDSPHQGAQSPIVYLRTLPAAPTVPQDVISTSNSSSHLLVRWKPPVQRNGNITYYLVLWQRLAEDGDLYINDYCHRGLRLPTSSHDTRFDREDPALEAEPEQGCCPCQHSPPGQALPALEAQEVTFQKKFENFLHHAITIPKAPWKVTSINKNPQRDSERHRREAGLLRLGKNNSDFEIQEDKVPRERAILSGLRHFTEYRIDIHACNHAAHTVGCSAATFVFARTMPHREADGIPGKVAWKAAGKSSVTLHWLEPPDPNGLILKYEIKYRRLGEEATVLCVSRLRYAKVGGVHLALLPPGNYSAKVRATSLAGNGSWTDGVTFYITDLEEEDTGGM

As to “Peak 2 of the re-purified IRR ligand from rat C6 glioma cell culture supernatant (rat epithelin/granulin precursor fragment, SEQ ID NO: 4) (from UniProt P23785 439-494)”, the binding activity (RU; IRR-Fc binding value minus IR-Fc binding value) is 21 RU.
Under “Peak 1 of the re-purified IRR ligand from rat C6 glioma cell culture supernatant (rat epithelin/granulin precursor fragments, SEQ ID NOS: 5 and 6) (from UniProt P23785 438-494)” stands 13 RU.
